In US20170355757A1 (Regeneron, published 2017):
Values belong to the binder of their own block, whether it stands above or below them.

What was measured:
human C5 [1] = molecular target: T1, human C5 (human, UniProt P01031 19-1676); experiment: SPR (Biacore), mAb captured, dissociation of human C5 at pH7.4 vs pH6.0, 37°C
T1 construct: native C5 purified from plasma (EMD) in the Biacore and Octet assays, C5 of normal human serum in the CDC and hemolysis assays; two chains (alpha and beta); also called hC5; complement factor 5
Protocol: Effect of pH on the rate of dissociation of recombinant human C5 bound to purified anti-C5 monoclonal antibodies was determined using a real-time surface plasmon resonance biosensor using a Biacore T200 instrument. The Biacore sensor surface was first derivatized by amine coupling with a monoclonal mouse anti-human Fc antibody (GE, # BR-1008-39) to capture anti-C5 monoclonal antibodies expressed with human IgG4 Fc. All Biacore binding studies were performed using two running buffers PBS-T, pH7.4 (0.01M Na₂HPO₄/NaH₂PO₄, 0.15M NaCl, 0.05% v/v Tween-20, adjusted to pH7.4) and PBS-T, pH6.0 (0.01M Na₂HPO₄/NaH₂PO₄, 0.15M NaCl, 0.05% v/v Tween-20, adjusted to pH6.0). […] Binding dissociative half-lives (t %) were calculated from kd as: […]

human C5 [2] = molecular target: T1, human C5; experiment: cell-based or functional assay
African green monkey C5 [3] = molecular target: T2, African green monkey C5 (African green monkey); experiment: cell-based or functional assay
human C5 R885C-mmh [4] = molecular target: human C5 R885C-mmh (human, UniProt P01031 19-1676); experiment: cell-based or functional assay
human C5 R885H-mmh [5] = molecular target: human C5 R885H-mmh (human, UniProt P01031 19-1676); experiment: cell-based or functional assay
monkey C5-mmh [6] = molecular target: T3, monkey C5-mmh (monkey, UniProt P01031 19-1676 (human entry), limits assumed); experiment: SPR (Biacore), mAb captured, dissociation of monkey C5 at pH7.4 vs pH6.0, 37°C
T3 construct: recombinant, with C-terminal myc-myc-hexahistidine tag
T3 chain: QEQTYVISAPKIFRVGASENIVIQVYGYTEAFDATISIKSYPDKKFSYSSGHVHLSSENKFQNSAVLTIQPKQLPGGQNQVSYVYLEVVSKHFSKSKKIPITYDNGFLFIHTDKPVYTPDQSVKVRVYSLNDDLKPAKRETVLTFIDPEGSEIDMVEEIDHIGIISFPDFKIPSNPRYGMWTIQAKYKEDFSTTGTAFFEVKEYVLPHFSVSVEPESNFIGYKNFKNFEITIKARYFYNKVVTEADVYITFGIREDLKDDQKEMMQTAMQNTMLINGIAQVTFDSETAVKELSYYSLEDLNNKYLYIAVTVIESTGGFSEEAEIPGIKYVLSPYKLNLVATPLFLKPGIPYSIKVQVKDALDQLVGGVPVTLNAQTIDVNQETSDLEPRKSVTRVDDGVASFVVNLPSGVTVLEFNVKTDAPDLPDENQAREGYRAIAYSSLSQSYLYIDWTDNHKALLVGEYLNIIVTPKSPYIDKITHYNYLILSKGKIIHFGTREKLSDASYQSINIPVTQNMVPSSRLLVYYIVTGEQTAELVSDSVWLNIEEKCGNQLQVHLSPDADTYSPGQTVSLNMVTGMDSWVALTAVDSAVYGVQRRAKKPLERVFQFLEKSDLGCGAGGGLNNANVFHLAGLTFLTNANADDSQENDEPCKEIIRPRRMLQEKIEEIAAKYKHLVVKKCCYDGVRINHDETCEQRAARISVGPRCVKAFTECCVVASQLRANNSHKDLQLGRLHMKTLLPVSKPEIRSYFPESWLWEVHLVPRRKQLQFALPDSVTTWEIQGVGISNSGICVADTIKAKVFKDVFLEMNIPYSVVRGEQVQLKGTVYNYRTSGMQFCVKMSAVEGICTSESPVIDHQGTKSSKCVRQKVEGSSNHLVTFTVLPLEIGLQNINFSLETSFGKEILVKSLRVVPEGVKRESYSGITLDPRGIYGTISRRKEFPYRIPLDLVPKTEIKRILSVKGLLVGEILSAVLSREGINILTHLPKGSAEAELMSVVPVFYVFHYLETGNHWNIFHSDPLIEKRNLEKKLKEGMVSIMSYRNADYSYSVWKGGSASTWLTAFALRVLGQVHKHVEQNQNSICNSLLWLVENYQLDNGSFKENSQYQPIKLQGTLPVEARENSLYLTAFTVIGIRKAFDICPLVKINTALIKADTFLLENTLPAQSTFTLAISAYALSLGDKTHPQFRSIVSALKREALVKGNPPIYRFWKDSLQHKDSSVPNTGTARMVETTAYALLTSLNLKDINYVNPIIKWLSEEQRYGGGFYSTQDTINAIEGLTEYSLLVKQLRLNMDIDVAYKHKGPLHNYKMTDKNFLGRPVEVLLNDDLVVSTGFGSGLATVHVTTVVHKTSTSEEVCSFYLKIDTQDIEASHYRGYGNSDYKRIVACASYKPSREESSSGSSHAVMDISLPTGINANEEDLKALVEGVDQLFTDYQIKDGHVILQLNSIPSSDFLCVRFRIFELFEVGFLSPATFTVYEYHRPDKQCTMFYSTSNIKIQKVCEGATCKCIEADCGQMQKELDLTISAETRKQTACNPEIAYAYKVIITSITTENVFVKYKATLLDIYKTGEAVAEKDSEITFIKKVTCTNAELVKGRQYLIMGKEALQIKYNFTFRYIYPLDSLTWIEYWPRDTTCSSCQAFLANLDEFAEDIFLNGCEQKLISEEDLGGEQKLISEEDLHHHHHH

African green monkey C5 [7] = molecular target: T2, African green monkey C5; experiment: cell-based or functional assay; remark: listed apart in the source
human C5 [8] = molecular target: T1, human C5; experiment: cell-based or functional assay; remark: listed apart in the source
Cynomolgus monkey C5 = Cynomolgus monkey C5 (cynomolgus monkey, UniProt A0A2K5U1T1 19-1676); experiment: cell-based or functional assay
human C5 [9] = molecular target: T4, human C5 (human, UniProt P01031 19-1676); experiment: SPR, mAb captured via anti-hFc, dissociation at pH7.4 vs pH6.0, 25C
T4 construct: Bought human C5 (EMD #204888, said elsewhere to be purified from plasma); also called hC5; complement component 5
How it was run: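 Anti-C5 mAbs (human IgG4 Fc) captured on an amine-coupled mouse anti-human Fc surface; recombinant C5 dissociation followed by Biacore T200 in PBS-T (0.01M phosphate, 0.15M NaCl, 0.05% Tween-20) at pH7.4 or pH6.0. Dissociative half-life (t½) calculated from kd.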

human C5 R885C-mmh [10] = molecular target: T5, human C5 R885C-mmh (human, UniProt P01031 19-1676); experiment: SPR, mAb captured via anti-hFc, 25C
T5 construct: also called human C5 variant R885C
How it was run: (§1)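 Anti-C5 mAbs were held by immobilised mouse anti-human Fc, and untagged or mmh-tagged C5 flowed 3 min, then buffer 8 min, in HBST pH 7.4.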

human C5 R885H-mmh [11] = molecular target: T6, human C5 R885H-mmh (human, UniProt P01031 19-1676); experiment: SPR, mAb captured via anti-hFc, 25C
T6 construct: also called human C5 variant R885H
How it was run: as §1

monkey C5-mmh [12] = molecular target: T7, monkey C5-mmh (monkey, UniProt P01031 19-1676 (human entry), limits assumed); experiment: SPR, mAb captured via anti-hFc, 37C
T7 construct: Recombinant monkey C5 with a C-terminal myc-myc-hexahistidine tag
T7 chain: T3 chain
How it was run: as §1

human C5 R885C-mmh [13] = molecular target: T5, human C5 R885C-mmh; experiment: SPR, mAb captured via anti-hFc, 37C
How it was run: as §1

human C5 R885H-mmh [14] = molecular target: T6, human C5 R885H-mmh; experiment: SPR, mAb captured via anti-hFc, 37C
How it was run: as §1

t½ Ratio pH7.4/pH6.0 (human C5 [1]): ≤ 0.7
IC50, inhibition of CDC of Daudi cells, 1.66% human serum (human C5 [2]): 2.4 nM
IC50, inhibition of CDC of Daudi cells, 1.66% African Green monkey serum (African green monkey C5 [3]): 2.6 nM
IC50, inhibition of CDC of Daudi cells, C5 depleted human serum and 6.6 nM C5 Variant R885C (human C5 R885C-mmh [4]): 1 nM
IC50, inhibition of CDC of Daudi cells, C5 depleted human serum and 6.6 nM C5 Variant R885H (human C5 R885H-mmh [5]): 1.8 nM
t½ Ratio pH7.4/pH6.0 (monkey C5-mmh [6]): 10.7
B1: H4H12161P (antibody, human IgG4, V domains shown)
VH: EVQLVESGGDLVQPGGSLRLSCAASGFTFSDHYMDWVRQAPGKGLDWIGRIRNKANAYNTEYAASVRGRFTISRDDSQNLLYLQMNSLKTDDTAVYYCVRVWNYAYFAMDVWGQGTTVTVSS
VL: DIQMTQSPSSLSASVGDRVTITCRSSQNIGIFLNWYQQKPGEAPNLLISAASSLHSGVPSRFSGSGSGTDFTLTIGSLQPEDFATYYCQQTYNTIFTFGPGTKVDIK
notes: H4H: human IgG4 Fc with S108P hinge mutation
AGM AP % Max Inhibition, hemolysis assay, 5% serum (African green monkey C5 [7]): 35.7%
AGM CP % Max Inhibition, hemolysis assay, 5% serum (African green monkey C5 [7]): 78.9%
AGM Serum AP IC50, hemolysis assay, 5% serum (African green monkey C5 [7]): 47.5 nM
AGM Serum CP IC50, hemolysis assay, 5% serum (African green monkey C5 [7]): 31.9 nM
Human AP % Max Inhibition, hemolysis assay, NHS (human C5 [8]): 56.1%
Human AP IC50, hemolysis assay, NHS (human C5 [8]): 25.5 nM
Human CP % Max Inhibition, hemolysis assay, NHS (human C5 [8]): 93.7%
Human CP IC50, hemolysis assay, NHS (human C5 [8]): 2.56 nM
Cyno AP % Max Inhibition, hemolysis assay, 5% serum (Cynomolgus monkey C5): 98.4%
Cyno CP % Max Inhibition, hemolysis assay, 5% serum (Cynomolgus monkey C5): 100%
Cyno Serum AP IC50, hemolysis assay, 5% serum (Cynomolgus monkey C5): 7.8 nM
Cyno Serum CP IC50, hemolysis assay, 5% serum (Cynomolgus monkey C5): 27.9 nM

t1/2 Ratio pH7.4/pH6.0 (human C5 [9]): ≤ 0.5
100 nM Human C5 R885C-mmh Bound (RU) (human C5 R885C-mmh [10]): 177 RU
Kd (human C5 R885C-mmh [10]): 13.2 nM
koff (human C5 R885C-mmh [10]): 0.00132 s⁻¹
kon (human C5 R885C-mmh [10]): 100000 M⁻¹ s⁻¹
t1/2 (human C5 R885C-mmh [10]): 9 min
100 nM Human C5 R885H-mmh Bound (RU) (human C5 R885H-mmh [11]): 232 RU
Kd (human C5 R885H-mmh [11]): 4.01 nM
koff (human C5 R885H-mmh [11]): 0.000592 s⁻¹
kon (human C5 R885H-mmh [11]): 148000 M⁻¹ s⁻¹
t1/2 (human C5 R885H-mmh [11]): 20 min
100 nM monkey C5-mmh Bound (RU) (monkey C5-mmh [12]): 27 RU
Kd (monkey C5-mmh [12]): 47.7 nM
koff (monkey C5-mmh [12]): 0.00717 s⁻¹
kon (monkey C5-mmh [12]): 150000 M⁻¹ s⁻¹
t1/2 (monkey C5-mmh [12]): 2 min
100 nM Human C5 R885C-mmh Bound (RU) (human C5 R885C-mmh [13]): 31 RU
Kd (human C5 R885C-mmh [13]): 47.6 nM
koff (human C5 R885C-mmh [13]): 0.00507 s⁻¹
kon (human C5 R885C-mmh [13]): 107000 M⁻¹ s⁻¹
t1/2 (human C5 R885C-mmh [13]): 2 min
100 nM Human C5 R885H-mmh Bound (RU) (human C5 R885H-mmh [14]): 51 RU
Kd (human C5 R885H-mmh [14]): 10 nM
koff (human C5 R885H-mmh [14]): 0.00276 s⁻¹
kon (human C5 R885H-mmh [14]): 276000 M⁻¹ s⁻¹
t1/2 (human C5 R885H-mmh [14]): 4 min
B2: H4H12177P2 (antibody, human IgG4, V domains shown)
VH: EVQLVESGGGVVQRGESLRLSCSASDFIFKDYAMYWVRQIPGKGLEWISLISGDGDTTWYGDSVKGRFTISRDNNENSLFLQMNDLRTEDTAMYYCARDMGWNFFQLQYWGQGTLVTVSS
VL: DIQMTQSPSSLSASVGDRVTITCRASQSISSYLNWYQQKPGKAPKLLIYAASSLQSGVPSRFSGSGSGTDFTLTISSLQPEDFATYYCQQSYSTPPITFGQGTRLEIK
notes: Human IgG4 Fc with S108P hinge mutation (H4H)
